For assay [1], the target named is PTHR1 (Homo sapiens) (UniProt Q03431). Description: radioligand competition. Conditions: cited from earlier work. (Displacement assays read how much labelled ligand stays bound in the presence of the test substance.)
Assay [2] has as its target PTH1 receptor (PTHR1), recombinant, on transfected HEK 293a cells (UniProt Q03431).

Chain of PTH (P01270 32-115): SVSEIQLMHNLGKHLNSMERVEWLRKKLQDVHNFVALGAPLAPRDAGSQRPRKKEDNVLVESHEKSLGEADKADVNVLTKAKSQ

Turning to PTH1-34 1-34 (from UniProt P01270), the Ki (as a rule, a measure of affinity in units of concentration, obtained from inhibition or displacement) in assay [1] was 4 nM.

PTH (from UniProt P01270): the Ki in assay [1] is 2 nM.

With “PTH-HRP (prepro-PTH(1-84) fused to the N-terminus of horseradish peroxidase, N175S mutant) (from UniProt P01270 32-115) (ligand)”, the potency in cyclic AMP generation (10 min) in HEK 293a cells expressing PTHR1, against PTH(1-34) in assay [2] is 5 fold.

These data come from article PMC5638942.
